# According to doi:10.1101/2021.09.13.460021:
# Assays:
# [1] = molecular target: biotinylated unmodified histone H3 peptide; assay: pull-down + far-Western, overlay or dot blot
# [2] = molecular target: biotinylated histone H3K9me3 peptide; assay: pull-down + far-Western, overlay or dot blot
binder,measurement,setting,value
"GST tagged recombinant chromodomain (PfCD) of the chromodomain-containing protein PfCDP, wild type (domain or fragment) NEVFEVEKIIMARYKLNCKRKKNRKDENLDDFEFYIKWKNYDSDENTWEPFENLSPNLKGQARKVAL",Kd,[1],0.175 µM
same,Kd,[2],0.038 µM
